Sequences and labels used below:
B1: N^ε24-[(4S)-4-[[(4S)-4-[[(4S)-4-[[(4S)-4-acetamido-4-carboxybutanoyl]amino]-4-carboxybutanoyl]amino]-4-carboxybutanoyl]amino]-4-carboxybutanoyl]-[Imp1, Aib2, … (peptide)
peptide: [Desaminohistidyl][Aib]HGTFTSDYSKYLESRRAQDFVK([γGlu-γGlu-γGlu-γGlu-Ac])WLLST-OH
SMILES: CC(=O)N[C@@H](CCC(=O)N[C@@H](CCC(=O)N[C@@H](CCC(=O)N[C@@H](CCC(=O)NCCCC[C@H](NC(=O)[C@@H](NC(=O)[C@H](Cc1ccccc1)NC(=O)[C@H](CC(=O)O)NC(=O)[C@H](CCC(N)=O)NC(=O)[C@H](C)NC(=O)[C@H](CCCNC(=N)N)NC(=O)[C@H](CCCNC(=N)N)NC(=O)[C@H](CO)NC(=O)[C@H](CCC(=O)O)NC(=O)[C@H](CC(C)C)NC(=O)[C@H](Cc1ccc(O)cc1)NC(=O)[C@H](CCCCN)NC(=O)[C@H](CO)NC(=O)[C@H](Cc1ccc(O)cc1)NC(=O)[C@H](CC(=O)O)NC(=O)[C@H](CO)NC(=O)[C@@H](NC(=O)[C@H](Cc1ccccc1)NC(=O)[C@@H](NC(=O)CNC(=O)[C@H](Cc1c[nH]cn1)NC(=O)C(C)(C)NC(=O)CCc1c[nH]cn1)[C@@H](C)O)[C@@H](C)O)C(C)C)C(=O)N[C@@H](Cc1c[nH]c2ccccc12)C(=O)N[C@@H](CC(C)C)C(=O)N[C@@H](CC(C)C)C(=O)N[C@@H](CO)C(=O)N[C@H](C(=O)O)[C@@H](C)O)C(=O)O)C(=O)O)C(=O)O)C(=O)O
notes: Imp and Aib written X under substitutions
B2: N^ε28-[(4S)-4-[[(4S)-4-[[(4S)-4-[[(4S)-4-acetamido-4-carboxybutanoyl]amino]-4-carboxybutanoyl]amino]-4-carboxybutanoyl]amino]-4-carboxybutanoyl]-[Imp1, Aib2, … (peptide)
peptide: [Desaminohistidyl][Aib]HGTFTSDYSKYLESRRAQDFVAWLLK([γGlu-γGlu-γGlu-γGlu-Ac])T-OH
SMILES: CC(=O)N[C@@H](CCC(=O)N[C@@H](CCC(=O)N[C@@H](CCC(=O)N[C@@H](CCC(=O)NCCCC[C@H](NC(=O)[C@H](CC(C)C)NC(=O)[C@H](CC(C)C)NC(=O)[C@H](Cc1c[nH]c2ccccc12)NC(=O)[C@H](C)NC(=O)[C@@H](NC(=O)[C@H](Cc1ccccc1)NC(=O)[C@H](CC(=O)O)NC(=O)[C@H](CCC(N)=O)NC(=O)[C@H](C)NC(=O)[C@H](CCCNC(=N)N)NC(=O)[C@H](CCCNC(=N)N)NC(=O)[C@H](CO)NC(=O)[C@H](CCC(=O)O)NC(=O)[C@H](CC(C)C)NC(=O)[C@H](Cc1ccc(O)cc1)NC(=O)[C@H](CCCCN)NC(=O)[C@H](CO)NC(=O)[C@H](Cc1ccc(O)cc1)NC(=O)[C@H](CC(=O)O)NC(=O)[C@H](CO)NC(=O)[C@@H](NC(=O)[C@H](Cc1ccccc1)NC(=O)[C@@H](NC(=O)CNC(=O)[C@H](Cc1c[nH]cn1)NC(=O)C(C)(C)NC(=O)CCc1c[nH]cn1)[C@@H](C)O)[C@@H](C)O)C(C)C)C(=O)N[C@H](C(=O)O)[C@@H](C)O)C(=O)O)C(=O)O)C(=O)O)C(=O)O
notes: as for B1
B3: N^ε24-[(4S)-4-[[(4S)-4-[[(4S)-4-[[(4S)-4-acetamido-4-carboxybutanoyl]amino]-4-carboxybutanoyl]amino]-4-carboxybutanoyl]amino]-4-carboxybutanoyl]-[Imp1, Aib2, … (peptide)
peptide: [Desaminohistidyl][Aib]HGTFTSDYSKYLESRRAQEFVK([γGlu-γGlu-γGlu-γGlu-Ac])WLLST-OH
SMILES: CC(=O)N[C@@H](CCC(=O)N[C@@H](CCC(=O)N[C@@H](CCC(=O)N[C@@H](CCC(=O)NCCCC[C@H](NC(=O)[C@@H](NC(=O)[C@H](Cc1ccccc1)NC(=O)[C@H](CCC(=O)O)NC(=O)[C@H](CCC(N)=O)NC(=O)[C@H](C)NC(=O)[C@H](CCCNC(=N)N)NC(=O)[C@H](CCCNC(=N)N)NC(=O)[C@H](CO)NC(=O)[C@H](CCC(=O)O)NC(=O)[C@H](CC(C)C)NC(=O)[C@H](Cc1ccc(O)cc1)NC(=O)[C@H](CCCCN)NC(=O)[C@H](CO)NC(=O)[C@H](Cc1ccc(O)cc1)NC(=O)[C@H](CC(=O)O)NC(=O)[C@H](CO)NC(=O)[C@@H](NC(=O)[C@H](Cc1ccccc1)NC(=O)[C@@H](NC(=O)CNC(=O)[C@H](Cc1c[nH]cn1)NC(=O)C(C)(C)NC(=O)CCc1c[nH]cn1)[C@@H](C)O)[C@@H](C)O)C(C)C)C(=O)N[C@@H](Cc1c[nH]c2ccccc12)C(=O)N[C@@H](CC(C)C)C(=O)N[C@@H](CC(C)C)C(=O)N[C@@H](CO)C(=O)N[C@H](C(=O)O)[C@@H](C)O)C(=O)O)C(=O)O)C(=O)O)C(=O)O
notes: as for B1
B4: N^ε24-[(4S)-4-[[(4S)-4-[[(4S)-4-[[(4S)-4-acetamido-4-carboxybutanoyl]amino]-4-carboxybutanoyl]amino]-4-carboxybutanoyl]amino]-4-carboxybutanoyl]-[Imp1, Aib2, … (peptide)
peptide: [Desaminohistidyl][Aib]HGTFTSDLSKYLESRRAQDFVK([γGlu-γGlu-γGlu-γGlu-Ac])WLLST-OH
SMILES: CC(=O)N[C@@H](CCC(=O)N[C@@H](CCC(=O)N[C@@H](CCC(=O)N[C@@H](CCC(=O)NCCCC[C@H](NC(=O)[C@@H](NC(=O)[C@H](Cc1ccccc1)NC(=O)[C@H](CC(=O)O)NC(=O)[C@H](CCC(N)=O)NC(=O)[C@H](C)NC(=O)[C@H](CCCNC(=N)N)NC(=O)[C@H](CCCNC(=N)N)NC(=O)[C@H](CO)NC(=O)[C@H](CCC(=O)O)NC(=O)[C@H](CC(C)C)NC(=O)[C@H](Cc1ccc(O)cc1)NC(=O)[C@H](CCCCN)NC(=O)[C@H](CO)NC(=O)[C@H](CC(C)C)NC(=O)[C@H](CC(=O)O)NC(=O)[C@H](CO)NC(=O)[C@@H](NC(=O)[C@H](Cc1ccccc1)NC(=O)[C@@H](NC(=O)CNC(=O)[C@H](Cc1c[nH]cn1)NC(=O)C(C)(C)NC(=O)CCc1c[nH]cn1)[C@@H](C)O)[C@@H](C)O)C(C)C)C(=O)N[C@@H](Cc1c[nH]c2ccccc12)C(=O)N[C@@H](CC(C)C)C(=O)N[C@@H](CC(C)C)C(=O)N[C@@H](CO)C(=O)N[C@H](C(=O)O)[C@@H](C)O)C(=O)O)C(=O)O)C(=O)O)C(=O)O
notes: as for B1
B5: N^ε24-[(4S)-4-[[(4S)-4-[[(4S)-4-[[(4S)-4-acetamido-4-carboxybutanoyl]amino]-4-carboxybutanoyl]amino]-4-carboxybutanoyl]amino]-4-carboxybutanoyl]-[Imp1, Aib2, … (peptide)
peptide: [Desaminohistidyl][Aib]HGTFTSDYSKYLDVRRAQDFVK([γGlu-γGlu-γGlu-γGlu-Ac])WLLST-OH
SMILES: CC(=O)N[C@@H](CCC(=O)N[C@@H](CCC(=O)N[C@@H](CCC(=O)N[C@@H](CCC(=O)NCCCC[C@H](NC(=O)[C@@H](NC(=O)[C@H](Cc1ccccc1)NC(=O)[C@H](CC(=O)O)NC(=O)[C@H](CCC(N)=O)NC(=O)[C@H](C)NC(=O)[C@H](CCCNC(=N)N)NC(=O)[C@H](CCCNC(=N)N)NC(=O)[C@@H](NC(=O)[C@H](CC(=O)O)NC(=O)[C@H](CC(C)C)NC(=O)[C@H](Cc1ccc(O)cc1)NC(=O)[C@H](CCCCN)NC(=O)[C@H](CO)NC(=O)[C@H](Cc1ccc(O)cc1)NC(=O)[C@H](CC(=O)O)NC(=O)[C@H](CO)NC(=O)[C@@H](NC(=O)[C@H](Cc1ccccc1)NC(=O)[C@@H](NC(=O)CNC(=O)[C@H](Cc1c[nH]cn1)NC(=O)C(C)(C)NC(=O)CCc1c[nH]cn1)[C@@H](C)O)[C@@H](C)O)C(C)C)C(C)C)C(=O)N[C@@H](Cc1c[nH]c2ccccc12)C(=O)N[C@@H](CC(C)C)C(=O)N[C@@H](CC(C)C)C(=O)N[C@@H](CO)C(=O)N[C@H](C(=O)O)[C@@H](C)O)C(=O)O)C(=O)O)C(=O)O)C(=O)O
notes: as for B1
B6: N^ε24-[(4S)-4-[[(4S)-4-[[(4S)-4-[[(4S)-4-acetamido-4-carboxybutanoyl]amino]-4-carboxybutanoyl]amino]-4-carboxybutanoyl]amino]-4-carboxybutanoyl]-[Imp1, Aib2, … (peptide)
peptide: [Desaminohistidyl][Aib]HGTFTSDYSKYLDLRRAQDFVK([γGlu-γGlu-γGlu-γGlu-Ac])WLLST-OH
SMILES: CC(=O)N[C@@H](CCC(=O)N[C@@H](CCC(=O)N[C@@H](CCC(=O)N[C@@H](CCC(=O)NCCCC[C@H](NC(=O)[C@@H](NC(=O)[C@H](Cc1ccccc1)NC(=O)[C@H](CC(=O)O)NC(=O)[C@H](CCC(N)=O)NC(=O)[C@H](C)NC(=O)[C@H](CCCNC(=N)N)NC(=O)[C@H](CCCNC(=N)N)NC(=O)[C@H](CC(C)C)NC(=O)[C@H](CC(=O)O)NC(=O)[C@H](CC(C)C)NC(=O)[C@H](Cc1ccc(O)cc1)NC(=O)[C@H](CCCCN)NC(=O)[C@H](CO)NC(=O)[C@H](Cc1ccc(O)cc1)NC(=O)[C@H](CC(=O)O)NC(=O)[C@H](CO)NC(=O)[C@@H](NC(=O)[C@H](Cc1ccccc1)NC(=O)[C@@H](NC(=O)CNC(=O)[C@H](Cc1c[nH]cn1)NC(=O)C(C)(C)NC(=O)CCc1c[nH]cn1)[C@@H](C)O)[C@@H](C)O)C(C)C)C(=O)N[C@@H](Cc1c[nH]c2ccccc12)C(=O)N[C@@H](CC(C)C)C(=O)N[C@@H](CC(C)C)C(=O)N[C@@H](CO)C(=O)N[C@H](C(=O)O)[C@@H](C)O)C(=O)O)C(=O)O)C(=O)O)C(=O)O
notes: Imp and Aib are written X under substitutions because they have no one-letter code
B7: N^ε24-[(4S)-4-[[(4S)-4-[[(4S)-4-[[(4S)-4-acetamido-4-carboxybutanoyl]amino]-4-carboxybutanoyl]amino]-4-carboxybutanoyl]amino]-4-carboxybutanoyl]-[Imp1, His3, … (peptide)
peptide: [Desaminohistidyl]SHGTFTSDYSKYLESRRAQEFVK([γGlu-γGlu-γGlu-γGlu-Ac])WLLST-OH
SMILES: CC(=O)N[C@@H](CCC(=O)N[C@@H](CCC(=O)N[C@@H](CCC(=O)N[C@@H](CCC(=O)NCCCC[C@H](NC(=O)[C@@H](NC(=O)[C@H](Cc1ccccc1)NC(=O)[C@H](CCC(=O)O)NC(=O)[C@H](CCC(N)=O)NC(=O)[C@H](C)NC(=O)[C@H](CCCNC(=N)N)NC(=O)[C@H](CCCNC(=N)N)NC(=O)[C@H](CO)NC(=O)[C@H](CCC(=O)O)NC(=O)[C@H](CC(C)C)NC(=O)[C@H](Cc1ccc(O)cc1)NC(=O)[C@H](CCCCN)NC(=O)[C@H](CO)NC(=O)[C@H](Cc1ccc(O)cc1)NC(=O)[C@H](CC(=O)O)NC(=O)[C@H](CO)NC(=O)[C@@H](NC(=O)[C@H](Cc1ccccc1)NC(=O)[C@@H](NC(=O)CNC(=O)[C@H](Cc1c[nH]cn1)NC(=O)[C@H](CO)NC(=O)CCc1c[nH]cn1)[C@@H](C)O)[C@@H](C)O)C(C)C)C(=O)N[C@@H](Cc1c[nH]c2ccccc12)C(=O)N[C@@H](CC(C)C)C(=O)N[C@@H](CC(C)C)C(=O)N[C@@H](CO)C(=O)N[C@H](C(=O)O)[C@@H](C)O)C(=O)O)C(=O)O)C(=O)O)C(=O)O
notes: Imp written X under substitutions

We go through seven molecules from patent US20170008943A1 (Novo Nordisk, published 2017).

*1 amine or outer side, *2 acyl side, *3 side chain or, on linkers, in order; H or OH if unused. Side-chain parts run from the residue outwards. [ ]: non-standard residue; d: D form. The star is where a group is joined. γGlu = O=C(O)[C@H](CCC(=O)[*:2])N[*:1]; Desaminohistidyl = O=C(CCc1c[nH]cn1)*; Aib = CC(C)(N)C(=O)O

For orientation: IC50 means the concentration that gives 50% inhibition. Low values mean inhibition by little substance, high ones a need for much substance.

T1 sequence (P47871 26-477): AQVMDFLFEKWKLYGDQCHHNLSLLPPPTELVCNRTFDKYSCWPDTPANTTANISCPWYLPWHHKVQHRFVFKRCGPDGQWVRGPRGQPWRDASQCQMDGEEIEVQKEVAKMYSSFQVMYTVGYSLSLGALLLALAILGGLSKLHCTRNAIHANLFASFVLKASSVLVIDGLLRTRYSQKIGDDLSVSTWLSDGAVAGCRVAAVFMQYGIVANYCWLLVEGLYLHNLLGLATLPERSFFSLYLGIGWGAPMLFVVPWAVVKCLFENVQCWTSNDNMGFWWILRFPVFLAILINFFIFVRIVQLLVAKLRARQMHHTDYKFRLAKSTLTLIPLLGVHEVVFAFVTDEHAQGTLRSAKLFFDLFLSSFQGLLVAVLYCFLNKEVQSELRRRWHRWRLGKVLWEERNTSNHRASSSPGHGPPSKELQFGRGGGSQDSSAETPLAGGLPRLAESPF

One assay addresses T1, human glucagon receptor (human, UniProt P47871 26-477). Kind of assay: cell-based or functional assay.
With B1, the “EC50 hGlucagonR (pM), CRE luciferase reporter in BHK cells” value was 5 pM.
The same measure, in the same setting: to B2 belongs 5 pM.
The same measure, in the same setting: to B3 belongs 2 pM.
For B4, the “EC50 hGlucagonR (pM), CRE luciferase reporter in BHK cells” value stood at 10 pM.
The same measure, in the same setting: to B5 belongs 2 pM; to B6, 1 pM; to B7, 4.7 pM.

Another assay deals with T1, human glucagon receptor. Kind of assay: displacement of 125I-glucagon from BHK membranes with human glucagon receptor (SPA), Assay (II)(b). Background: In a radioligand displacement assay an active substance lowers the binding of a labelled ligand.
With B1, the IC50 worked out at 1.9 nM.
On the same count and under the same terms, as for B2, the figure is 1.8 nM; as for B3, 1 nM.
B4 registered an IC50 of 4.9 nM.
The same measure, in the same setting: to B5 belongs 0.5 nM; to B6, 0.2 nM; to B7, 1.8 nM.
